Assay results: US20210380675A1 (Kyowa Kirin, published 2021)
Changes are numbered by the printed parent chain. Blank lines part the entries; values can stand above or below the binder they belong to.

Legend:
human IL-36γ, truncated [1] = target: T1, human IL-36γ, truncated (human, UniProt Q9NZH8 18-169); experiment: cell-based or functional assay
T1 sequence: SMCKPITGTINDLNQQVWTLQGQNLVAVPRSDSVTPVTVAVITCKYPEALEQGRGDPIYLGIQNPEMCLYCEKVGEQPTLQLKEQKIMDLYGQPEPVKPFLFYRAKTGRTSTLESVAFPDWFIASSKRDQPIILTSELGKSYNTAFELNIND

[2] = target: T2, human IL-36α(R12), truncated (human, UniProt Q9UHA7 6-158); experiment: cell-based or functional assay
T2 chain: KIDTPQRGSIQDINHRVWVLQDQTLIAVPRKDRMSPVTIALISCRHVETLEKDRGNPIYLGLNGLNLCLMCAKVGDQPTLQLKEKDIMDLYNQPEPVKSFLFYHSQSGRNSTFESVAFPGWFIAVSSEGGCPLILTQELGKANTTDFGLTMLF

human IL-36γ, truncated [3] = target: T1, human IL-36γ, truncated; experiment: cell-based or functional assay; remark: listed apart in the source
[4] = target: T2, human IL-36α(R12), truncated; experiment: cell-based or functional assay
[5] = target: T2, human IL-36α(R12), truncated; experiment: cell-based or functional assay
[6] = target: T3, cynomolgus IL-36α, truncated (cynomolgus macaque (Macaca fascicularis), UniProt Q9UHA7 14-158 (human entry), limits assumed); experiment: cell-based or functional assay
T3 chain: T2 chain with I2S, D3E, T4M, R7P, G8V, T24I, M34V, A40S, V74A

human IL-36γ, truncated [7] = target: T1, human IL-36γ, truncated; experiment: cell-based or functional assay; remark: listed apart in the source
[8] = target: T4, cynomolgus IL-36γ, truncated (cynomolgus macaque (Macaca fascicularis), UniProt Q9NZH8 18-167 (human entry), limits assumed); experiment: cell-based or functional assay
T4 chain: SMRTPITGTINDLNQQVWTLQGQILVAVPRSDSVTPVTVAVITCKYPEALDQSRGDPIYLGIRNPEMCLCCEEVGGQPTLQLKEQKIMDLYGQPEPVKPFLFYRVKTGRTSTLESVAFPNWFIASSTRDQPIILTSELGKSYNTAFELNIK

human IL-36γ, truncated [9] = target: T1, human IL-36γ, truncated; experiment: SPR, Biacore T200, antibody on chip, IL-36 as analyte, 1:1 Langmuir fit
Description: (§1) Antibodies were further tested for their binding to recombinant human or cynomolgus IL36α, IL-36γ in Biacore assays. In order to kinetically analyze the binding activity of the IL-36α and IL-36γ dual antagonist antibodies, the binding activity to human and cynomolgus IL-36α and IL-36γ was measured by surface plasmon resonance method (SPR). All of the following manipulations were carried out using a Biacore T200 (GE Healthcare Life Sciences, Pittsburgh, Pa.).
(§2) To determine antibody affinity to human and cynomolgus IL36, recombinant antibodies were immobilized on a CM5 sensor chip (cat# BR100012, GE Healthcare Life Sciences, Pittsburgh, Pa.) by an amine coupling chemistry. In particular, the kinetic assay was carried out by immobilizing on the chip approximately 2000 RU of recombinant antibody. Thereafter, recombinant human or cynomolgus IL36 proteins, serially diluted from a high concentration, were allowed to run at a flow rate of 30 μL/min onto the chip for 420 seconds. The dissociation time was 3600 seconds and the binding curves were measured at 25° C. Regeneration was performed with 10 mM glycine pH 1.5 for 30s. Alternatively, the analytes were injected with increasing concentrations in a single cycle, the surface not being regenerated between injections, using a method referred to as “single cycle kinetics.” In particular, either anti-human or anti-mouse Fc specific antibodies were immobilized on a CM5 sensor chip (cat# BR100012, GE Healthcare Life Sciences, Pittsburgh, Pa.) by an amine coupling chemistry. Thereafter, IL-36α and IL-36γ dual antagonist mouse/human chimeric or mouse antibodies were captured at approximately 200 RUs, followed by injections of increasing concentrations of recombinant human and cynomolgus IL36 proteins. The association time was 300 seconds, and the final dissociation time was 1200 seconds. At the end of the analyte injections, the surface was regenerated with either 3M MgCl₂ (anti-human Fc capture antibody) for 30 s or 10 mM glycine-HCl pH 1.7 for 180 s (anti-mouse IgG capture antibody).
(§3) The raw data were double referenced by subtraction of the signals from a reference flow cell without immobilized ligand and a buffer blank. The sensorgram corresponding to each concentration was obtained.

[10] = target: T2, human IL-36α(R12), truncated; experiment: as above
Description: as §1, §2, §3

[11] = target: T4, cynomolgus IL-36γ, truncated; experiment: as above
Description: as §1, §2, §3

[12] = target: T3, cynomolgus IL-36α, truncated; experiment: as above
Description: as §1, §2, §3

[13] = target: T5, human IL-36α(Q12), truncated (human, UniProt Q9UHA7 6-158); experiment: as above
T5 construct: Untagged after removal of the His-SUMO tag
T5 sequence: T2 chain with R7Q
Description: as §1, §2, §3

- IC50 of IL-8 secretion, primary human monocytes, 6 nM human IL-36γ, FIG. 5C (human IL-36γ, truncated [3]): 5.49 nM
- IC50 of IL-8 secretion, primary human monocytes, 50 nM human IL-36γ, FIG. 5D (human IL-36γ, truncated [3]): 50.9 nM
- IC50 of IL-8 secretion, primary human monocytes, 20 nM human IL-36α, FIG. 5A [4]: 96.9 nM
- IC50 of IL-8 secretion, HaCaT, 10 nM human IL-36α, FIG. 1C [5]: 22.5 nM
- IC50 of IL-8 secretion, HaCaT, 10 nM cynomolgus IL-36α, FIG. 2B [6]: 15.7 nM
- IC50 of IL-8 secretion, HaCaT, 10 nM human IL-36γ, FIG. 1F (human IL-36γ, truncated [7]): 21.3 nM
- IC50 of IL-8 secretion, HaCaT, 10 nM cynomolgus IL-36γ, FIG. 2D [8]: 30.3 nM
B2: 144L180A (antibody, V domains shown)
VH: EVQLQQSGAELVKPGASVKLSCTASGFNIKDTYIYWVKQRPEQGLEWIGRIDPANGYTRYDPKFQGKATMTADTSSNTAYLQLSSLTSEDTAVYYCARYEYYDSSFYFDYWGQGTTLTVSS
VL: QAVVTQESALTTSPGETVTLTCRSSTGAVTTSNYANWVQEKPDHLFTGLIGGTNNRAPGVPARFSGSLIGDKAALTITGAQTEDEAIYFCALWYSNHLVFGGGTKLTVL

- IC50 of IL-8 secretion, primary human monocytes, 50 nM human IL-36γ, FIG. 5D (human IL-36γ, truncated [3]): 39.6 nM
- IC50 of IL-8 secretion, primary human monocytes, 20 nM human IL-36α, FIG. 5A [4]: 39.5 nM
- IC50 of IL-8 secretion, HaCaT, 10 nM human IL-36α, FIG. 1C [5]: 28.7 nM
- IC50 of IL-8 secretion, HaCaT, 10 nM cynomolgus IL-36α, FIG. 2B [6]: 9.61 nM
- IC50 of IL-8 secretion, HaCaT, 10 nM human IL-36γ, FIG. 1F (human IL-36γ, truncated [7]): 12.9 nM
- IC50 of IL-8 secretion, HaCaT, 10 nM cynomolgus IL-36γ, FIG. 2D [8]: 20.6 nM
B3: 144L133B (antibody, V domains shown)
VH: B2 VH with I34M, N55I, Y57T, M70L, Y80F, E100D, Y102S, D103G, Q113R
VL: B2 VL

Second part, the binder before the results:

B1: 144L124B (antibody, V domains shown)
VH: B2 VH
VL: B2 VL
notes: Mouse monoclonal from hybridoma; mouse IgG heavy and lambda light chain; Same VH and VL as 144L180A
- IC50 of IL-8 secretion, primary human keratinocytes, 8.4 nM human IL-36γ, FIG. 4C (human IL-36γ, truncated [1]): 15.8 nM
- IC50 of IL-8 secretion, primary human keratinocytes, 6.25 nM human IL-36α, FIG. 4A [2]: 11.1 nM
- IC50 of IL-8 secretion, primary human monocytes, 6 nM human IL-36γ, FIG. 5C (human IL-36γ, truncated [3]): 19.1 nM
- IC50 of IL-8 secretion, primary human monocytes, 50 nM human IL-36γ, FIG. 5D (human IL-36γ, truncated [3]): 41.2 nM
- IC50 of IL-8 secretion, primary human monocytes, 20 nM human IL-36α, FIG. 5A [4]: 44.2 nM
- IC50 of IL-8 secretion, HaCaT, 10 nM human IL-36α, FIG. 1C [5]: 42 nM
- IC50 of IL-8 secretion, HaCaT, 10 nM cynomolgus IL-36α, FIG. 2B [6]: 14.2 nM
- IC50 of IL-8 secretion, HaCaT, 10 nM human IL-36γ, FIG. 1F (human IL-36γ, truncated [7]): 15.8 nM
- IC50 of IL-8 secretion, HaCaT, 10 nM cynomolgus IL-36γ, FIG. 2D [8]: 28.3 nM
- Kd (human IL-36γ, truncated [9]): 0.833 nM
- koff (human IL-36γ, truncated [9]): 0.000691 s⁻¹
- kon (human IL-36γ, truncated [9]): 829000 M⁻¹ s⁻¹
- Kd [10]: 3.56 nM
- koff [10]: 0.0417 s⁻¹
- kon [10]: 1.17e+07 M⁻¹ s⁻¹
- Kd [11]: 0.824 nM
- koff [11]: 0.000488 s⁻¹
- kon [11]: 593000 M⁻¹ s⁻¹
- Kd [12]: 2.54 nM
- koff [12]: 0.0192 s⁻¹
- kon [12]: 7.56e+06 M⁻¹ s⁻¹

B4: chimeric m/h 144D464A (antibody, human IgG1, lambda, V domains shown)
VH: EVQLQQSGAELVKPGASVRLSCTASGFNIKDTYIHWVKQRPEQGLEWIGRIDPAIGTTRYDPKFQGKATITTDTSSDTVHLQFSSLTSEDTAVYYCARLHYFGNNFFFDYWGQGTTLTVSS
VL: QAVVTQESALTTSPGEAVTLTCRSSSGAVTTSNYANWVQEKPDHLFAGLIGGTNDRAPGVPARFSGSLIGDKAALTITGAQTEDEAIYFCALWFSNHWVFGGGTKLTVLG
notes: Mouse VH/VL joined to human IgG1 constant and human Ig lambda (IGLC2) constant; also called chimeric mouse/human (m/h) 144D464A antibody
- IC50 of IL-8 secretion, primary human keratinocytes, 8.4 nM human IL-36γ, FIG. 4C (human IL-36γ, truncated [1]): 12.8 nM
- IC50 of IL-8 secretion, primary human keratinocytes, 8.4 nM human IL-36γ, FIG. 4D (human IL-36γ, truncated [1]): 10 nM
- IC50 of IL-8 secretion, primary human keratinocytes, 6.25 nM human IL-36α, FIG. 4A [2]: 2.32 nM
- IC50 of IL-8 secretion, primary human keratinocytes, 8 nM human IL-36α, FIG. 4B [2]: 12.3 nM
- IC50 of IL-8 secretion, primary human monocytes, 50 nM human IL-36γ, FIG. 5D (human IL-36γ, truncated [3]): 33.3 nM
- IC50 of IL-8 secretion, primary human monocytes, 20 nM human IL-36α, FIG. 5A [4]: 7.15 nM
- IC50 of IL-8 secretion, primary human monocytes, 40 nM human IL-36α, FIG. 5B [4]: 22.4 nM
- IC50 of IL-8 secretion, HaCaT, 10 nM human IL-36α, FIG. 1A [5]: 3.84 nM
- IC50 of IL-8 secretion, HaCaT, 10 nM human IL-36α, FIG. 1C [5]: 7.77 nM
- IC50 of IL-8 secretion, HaCaT, 10 nM cynomolgus IL-36α, FIG. 2B [6]: 4.91 nM
- IC50 of IL-8 secretion, HaCaT, 10 nM human IL-36γ, FIG. 1D (human IL-36γ, truncated [7]): 6.43 nM
- IC50 of IL-8 secretion, HaCaT, 10 nM human IL-36γ, FIG. 1F (human IL-36γ, truncated [7]): 9.54 nM
- IC50 of IL-8 secretion, HaCaT, 10 nM cynomolgus IL-36γ, FIG. 2D [8]: 13.2 nM
- Kd (human IL-36γ, truncated [9]): 1.48 nM
- koff (human IL-36γ, truncated [9]): 0.000218 s⁻¹
- kon (human IL-36γ, truncated [9]): 147000 M⁻¹ s⁻¹
- Kd [10]: 2.18 nM
- koff [10]: 0.000309 s⁻¹
- kon [10]: 142000 M⁻¹ s⁻¹
- Kd [13]: 1.08 nM
- koff [13]: 0.000391 s⁻¹
- kon [13]: 361000 M⁻¹ s⁻¹
- Kd [11]: 1.84 nM
- koff [11]: 0.000342 s⁻¹
- kon [11]: 186000 M⁻¹ s⁻¹
- Kd [12]: 1.64 nM
- koff [12]: 0.000267 s⁻¹
- kon [12]: 163000 M⁻¹ s⁻¹
